Common to all, as to assay: ELISA
Details in all cases: one partner purified
On the technique in general: In an ELISA, binding on a coated surface is turned into a signal by an enzyme label.

For assay [1], the target named is H1N1-NP (nucleoprotein of A/Guangzhou/01/2009 (H1N1)) (Influenza A virus A/Guangzhou/01/2009 …, UniProt C3W5S2, strain).
Assay [2] concerns the target IBV-NP (nucleoprotein of influenza B virus B/Yamagata/16/1988) (Influenza B virus B/Yamagata/16/1988, UniProt Q82662, strain).
Assay [3] has as its target H9N2-NP fragment 1 to 1308 bp (N436 amino acids) (Influenza A virus …, UniProt W5RGA6).
For assay [4], the target named is H9N2-NP fragment 1 to 1215 bp (N405 amino acids) (Influenza A virus …, UniProt W5RGA6).
The target in assay [5] is H9N2-NP fragment 1 to 1167 bp (N389 amino acids) (Influenza A virus …, UniProt W5RGA6).
In assay [6] the target is H9N2-NP fragment 1 to 1182 bp (N394 amino acids) (Influenza A virus …, UniProt W5RGA6).

B1: H9N2-NP-Nb53-HRP (VHH)
VHH: ESGGGSVQAGGSLRLSCAASGYTFSNVYMGWFRQAPGKEREGVAAIDRDGRTTYGDSVKGRFTISQDNAKNILYLQMSSLKPEDTATYYCAADPGYVELISEPLAGIWYRYWGQGTQVTVSS
With B1, the binding result is given as “binds” in assay [1] and “no binding” in assay [2].

B2: H9N2-NP-Nb18-HRP (VHH)
VHH: ESGGGSVQAGGSLRLSCAASHTYGTYAMAWFRQAPGEEREGVAAIDSDGETIYADSVKGRFTISRDNAKNILYLQMNSLKPEDTAMYYCAEDLRGVWYGRLELRPGRFTYWGQGTQVTVSS
As for B2, the results for the binding result in assay [1] and in assay [2] were “binds” and “no binding”, respectively.

B3: H9N2-NP-Nb42-HRP (VHH)
VHH: ESGGESVQAGGSLRLSCATSGFTYNRSYCMAWFRQVLGKEREGVAVIDRVGGSTYYADSVKGRFTVSQDNAKTTLYLQMNSLTPEDTAMYYCAAVSTLMTTCQGLLAGHSQRYAYWGQGTQVTVSS
B3: the binding result is recorded as “binds” in assay [1] and “no binding” in assay [2].

B4: H9N2-NP-Nb16-HRP (VHH)
VHH: ESGGGSVQAGGSLRLSCAASGYTYSAYCMGWFRQAPGKEREEVASIDSDFGTNYADSVKGRFTISKDNPKNTLYLQMNNLKAEDTAMYYCAALKYSSSLCLDALPSRANYWGQGTQVTVSS
For the molecule B4, the binding result in assay [1] is reported as “binds”; in assay [2], “no binding”.

B5: H9N2-NP-Nb5-HRP (VHH)
VHH: ESGGGLVQPGGSLRLSCAASGFPFSDYDMNWARQAPGKELEDVSAISSGGTYTYYADSVKGRFTISRDNAKNTLYLQLNSLQTEDTAMYYCGRGWTSGYKSRGQGTQVTVSS
B5: the binding result in assay [1] is given as “binds”; in assay [2] it was “no binding”; in assay [3] it was “binds”; in assay [4], “binds”; in assay [5], “binds”; in assay [6], “binds”.

Values taken from paper PMC9763686 (The Journal of Biological Chemistry, 2022).
